Experimental findings from the NTF2 design screens of Basanta et al. (2020) are described below.

The data set is described as follows: protease stability score; higher = more stable; yeast display proteolysis, trypsin and chymotrypsin.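 Further: relative to predicted unfolded state with 0 unfolded-like and 1 meaning tenfold more protease.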
“DDLEEEVEHFFELFWDDLLTGDEHSLTRQLDPHARFEYGDKVWHGREVYRQFMTQADHRHVEIKHTRVVNGRVEMNIEVRLHINGRRIESTVHIISTKINGQWRLESQHVE” yielded a protease stability score of -0.081.
Then “DDLEESLKHLLELIIQWIRTGDFHMLSQYADPDVKIHYNGREYIGREFFLQLMREMGANHFSVERIDFQGDKLHVEISFRVGDKETHTRVESWKFNGVWLLKHIEMR”, with 0.463.
With “DDLEHDHKTVLELLKHLEETGDWDRLAKLADPNVRLQIGDKEWHGRRDMAKVLKRFIEEMRIQHIRFRDMKIQGDKLVFDTELDFEQGDKTVHVRTEIILVVVNGQLKSIEIRIE”, the protease stability score was determined as 2.44.
The same measure for “DDLEHEAHEFVRRFMEDFDTGNEKSFEDLADPNVRLDFDGKRQHGRETVSEWLYRWLYDLGIKHTTLRHVETINGRVHSTAELKVGDKHYDLHVEFKKVDGKWVFQRVYFR”: 1.11; for “DDLEHQARESLDLHTEARKTGDEDQLKNLIDPHVRIEQGDKHIHGMEMFIRHWHKLGADHSEFRLKHVRVIDGRVRIDGEMIIHINGRTISIEVHFNINKINGRWIITEIHIH”: 1.09.
Sequence “DDLEHSSETFEKLWLESVFTGDWRSLLEMLDPHARLVINGRDFIGRELVKETLKEFLDRVPNMTLKLEDREVHIQGDKARIELHTRLEVGDKTVDTRIELIVNKIDGRWLLESQIIRIH” came in with a protease stability score of 1.08.
In the case of “DDLEKIVLRMLNLWLKSILTGDEEFEEHYADPNVRYEINGVELHGRERFSQWLTDLRRKFKNIRIEIRVHHTEAQGDKMRSEEELIIDFEGRQINREVRIDMKVIDGRIKEVKVHII”, the protease stability score was determined as 1.42.
The same measure for “DDLEKVSHWFNRMWTEILKTGDEKLLKDLLDPHTKLIFENRHEHGREHMISFFKKLLDEMRVHDVKIRDIEVQGDKVISDTSLDLEINGRSFEVETRLLAVKVNGRWYVHEIELR”: 2.36; for “DDLEKWYEDIARLYHHNLLTGDEDVIHELLDPNVRLVVGDKHFHGRESVIEFLKRELTEIRIEDIKIKEVHWVGDFSINRGTLHIRINGVLFDVRSEVIFDVINGKIRRVTRIII”: 1.6; for “DDLEQESHKVFEQYVRDWRTGDEHNVERLADPHVRVLYNGRHSHGWKEFLEHFSRDAQQADHTEFRIDDTDHQGDKMVLNETVILRYGDKEIQIEVELIYRKIDGRWYITEVRFR”: 0.204.
“DDLEREAEEFHRLMHKSVRTGDEKLIEEMFDPNVRLDINGREMHGRHDVVELERRVDHSEWHIEDIRVVGEWADIRGELVIQVGDKEHIYKTRLIVLKIDGKWRTTEMHVR” gave a protease stability score of 0.731.
The sequence “DDLEREAKTMVDRFRELMATGDFEEREHLVDPNTRWHVNGQDFHGRELITEILIKKFEDLGVEKITFRVERIRVVGDKIEVDGVLIIDGREIDTRLNWTKVNGRWIIKFESEK” returned a protease stability score of 0.927.
Then “DDLERLVRELLDLWKRALKTGDEDVLSKMFDPDVRLTINGQVSVGREDVLRLWQEWRVDRMEERDVTVQGDKIHMDGHSHVEYDGRRIEVRHEIILVIVNGRAKSQEVRIR”, with 1.62; and “DDLETMFRRLFREWIERAETGDESRLRHLADPHYRSDQGDYDLHGREFAHEFLSRLWKELRFTIHIRHMYVYDGRVEVDGEIRVRINGRETTHKIRIEIVIVDGRIESEHIEIR”, with 1.26; and “DDLHEDTKRYLKEWIDLMYTGDEEKIFENMDPNTRIIDENHELHGREEVKDWARRMARELRHREFELTHLEVQGNFIHVRGLLIGDQGDKVIIRDVEIISIKINGRWRIESVRFE”, with 2.34.
Then “DDLHRNMKKVADLFIQVWLTGDFEELMHLFDPNVRLKVNGVEMHGRDDFAKFVKEHRERIDHMHFRLDELRIYGDKIVIHGTLHLHQGEKDWHHEVHIHLLVIDGVIRTVEEEER”, with 2.08; and “DDLKEDADKYSDLEREARQTGDEDFISNLMDPNVLVLINGREIHGREDVLKWLVDLRRKLGVDRFRSEVEDKHIDVQGDKIRIHGILRLNFNGQHFRIDVHIIFQKVDGRWHVREERYH”, with 1.41.
With “DDMEEMAKEVFREWFEIVETGDEEKLLKLIDPNTRVDINGQEVHGREDISRITSKLIRELGVKHIRSEVKSFDIVGNKIRVRGLEIRDVGDKHKEIHTHFFIMKIDGKWVITNMHFH”, the protease stability score came out at 1.5.
On to “DDMEKETRQFTKLWIEALETGDEDFIKHLVDPHAKITVNGVEYHGMESMKDELKKIKNVRMEIKDVRVFNGVSKIDMESHFDGRTHDTRIEIFVVDGRFKEVRLHIR”, for which the protease stability score turned out to be 1.01.
For “DDMERHARKALRVLIESLMTGDEDDIYRMLDPHVRYIFDGVDFHGRERTKETLERLSREFGLSRVHTELKDSKVYDGRLELHLEVNVDGRRRTVIVHVVKIDGKWYVEELRVQ”, the protease stability score is 1.26.
The same measure for “DDMERHNRWFLRDLIHAIVTGDEELEERLFDPNAKVHIDGVTFIGRELVEFLRKRVDHRRMHVKRTDSQGEYLINHTELILHINGKDVRTDTVWIFHKFNGQWVVHTMEVK”: 0.815; for “DDMHEVAKQLMEELVRNWITGNEDNVRHLLDPDVRIIIGDFIFHGRESLELLLHFYNKHIRWTDYKVHDFRIQGDYLHMDTRLIGIIDGRHVILETQMVAVKINGRWRVKSLEVR”: 2.11.
For the sequence “DDMHRELRKLAEEIEKLIETGDEDRLRTLLDPHTRVEIGDWSDMGWDAIHKMIRHIRIDSVTIRREHFFNGRVHTDIEVDGTIGDKKDIRHVELEIVIVDGRVKEIKMIYV”, the protease stability score came out at 2.13.
The same measure for “DDMQEIVLRIAEELIHRETTGDEEFIKRLLDPRVRLEINGVDSIGMEEFWRFLFEEEHKLGVDHVRFDIKHIRVVDGRAHSIGILNLNINGKEHRFDVRIDIVVIDGRVREVRIEIR”: 2.51; for “DDNEELTERFMKHLIRAQQTGDWERLKELFDPNTRLIVGEKHVVGREHFINEWLEHHNKLGIDHSQIELHNLRIINGKAHIDGHFIEEFNGKRIEIRIEVVIVKINGRWLIKEIHFI”: 1.44.
“DDNEETVERTFKYFIDSLRTGNEEDMYEMADPNVKIEIGDKRLHGREKFRDHMHELSRRADHIQVHLRIHDIQGEFLHLDVELILDVNGKELRIKVHFVAFKFNGRWRLRSMRQT” had a protease stability score of 1.04.
Sequence “DDNTKHAHELVERWRHIIETGDEDIMEEMLDPNVRLLIGDKDLHGRETVEIWLRVLIRRFKNVRLESVHLESVEIQGNKAFSRVRVDLRYNGREDSMDVVVVVYKIDGRWRVHELSVH” registered a protease stability score of 1.77.
Then “DDQDTNSELAVHLWILSMITGDERFLNEYMDPNAKVHVGDKEYHGREAYEFLRHRVDHIRESHIRRVHTQGNKVRVDVEFRIEVDGREINVRTELVLIKINGQWRFTEFTFK”, with 2.22; and “DDQEEFLQRLVEELLRIIETGDWRRFWELLDPNMRVDVDGREIHGMEILVTIIRELWRKLGIDHVHIRLDHVEAFNGQAHAETTVDLRYDGQIIIRESRNHFIIIDGKVEDEKYELR”, with 0.279; and “DDQEEWAKIAMEMILEFLKTGDEELMLELLDPNVRVHLLIDGRHFEDHGRKATRWVIRFIKNVQVKIHNIEYQGDKVHIDVHVDVNGRKTRSREIWTLVDGRIEHVDVQDR”, with 1.2.
In turn, “DDQEKLVRKAWELLVRHLHTGDEEHLDKLIDPNTRMTYNGRETHGMELFSHLMTHLRVKDMDLKEVRIVDGRAILDGHLHGEIDGRETTTRTTYIILKIDGRWFVKSVRFE” came in with a protease stability score of 1.15.
In turn, “DDRDEVVEVASRLWMEIVETGDEDLFIRLLDPRTRIHIGDKTLHGREQVLDFLREHNRNLGIDRVEVRVERTEIQGEKVVVHSINIFNGKEWHVITIAHKINGRWITKEFHLH” displayed a protease stability score of 0.834.
Then “DDRDREARKLIQEITHALHTGDEELMEHMLDPSVRTNINGKDIHGMDLFYKWLIELVRRLGADHLNFEVKRVQLYGNKLNTDGHLFVHQGDFTILLNVRWYNLKVNGKWIHESIEIR”, with 1.45; and “DDREEDLHKALHLFRMTMLTGNEDLFRDLADPHTRVSVNGQELIGREHMEHWWKRVDHIEDSRLERVDIVDGVVLVDGRFVGTVNGRRIDTEYTIFAQKVNGQWILHSVKIV”, with 1.19.
